# Measured values reported in patent US20250154238A1 (YALE UNIVERSITY, published 2025).
# B1: humanized epiregulin neutralizing antibody 1 (hEreg NAb1) (antibody, V domains shown)
# VH: HLQLQESGPGLVKSSETLSLTCSVSGGSISSSGYYWGWIRQPPGKGLEWIGSFYYSGNTYYNPSLKSRVTISADTSKSQYSLKLSSVTAADTAVYYCARHPFNWNDHYHYMDVWGNGTTVTVSS
# VL: DIQMTQSPSSLSASVGDSVTITCRASQSISNYLNWYQKKPGKAPKVLIYAASSLQSGVPSRFSGSGSGTDFTLTISSLQPEDFATYYCQQSYITSITFGQGTRLEIK
# notes: The clone comes from hybridomas of Alloy mice (fully human variable regions) and represents wells M3, M4 and M5; also called humanized epiregulin antibody; M3
# Assays:
# [1] = biological target: T1, recombinant human epiregulin containing the epidermal growth factor (EGF) domain (R&D Biosciences Cat … (human, UniProt O14944 63-108)); assay: cell-based or functional assay
# [2] = biological target: T1, recombinant human epiregulin containing …; assay: cell-based or functional assay; remark: listed apart in the source
# [3] = biological target: T1, recombinant human epiregulin containing …; assay: cell-based or functional assay; remark: listed apart in the source
# [4] = biological target: T1, recombinant human epiregulin containing …; assay: Octet bio-layer interferometry, recombinant human epiregulin immobilized
# T1 sequence (O14944 63-108 limits assumed): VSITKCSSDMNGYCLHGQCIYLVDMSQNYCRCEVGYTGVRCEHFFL
binder,measurement,setting,value
B1,IC50 of inhibition of epiregulin-induced HFF proliferation (rhEreg 100 ng/ml),[1],0.1 to 0.3 µg/mL
same,"IC50 (nM), calculated from HFF proliferation assays",[2],1.8 nM
same,"IC50 of inhibition of HFF proliferation induced by 100 ng/ml rhEreg (GFP fluorescence, CyQUANT, day 3)",[3],0.27 µg/mL
same,Kd,[4],0.038 nM
